Source: the DeepSol protein solubility set

experiment: soluble on expression in E. coli; label from the status in PepcDB or PDB records

Sequence	soluble on expression in E. coli
MAIQFIVSNKYTAEVSKQLNDSQNWVLDSGIYYEDHNNHIVSSPINSATKPQNTREEWLWIPPHCQVVVCSTSSLKSFLGCKASEDLDRVFGDHPLWLDQLRPLSNLLENSLIDLLSRAPFEQSSKRNIQSMERGNPVMNWNVMQVEEEDTRGEQRVAASSSLSSSFDWNTFLRDRCGLSEEDVAYCFRKLSRFGRVSLSRLNEDSLLRMGINDPTVIAKLLIGITEEFS	not soluble
MAIRVIGTGFGRTGTDSMREALTILGFGPCHHMSEVMGNEDQKRLWRALAKGAAPDWNQLFAGYASCIDWPSAHYWRDLIEFYPKARVILTYRSPESWWASFEKTILAGISQSTDQESLGLALISRQVFDGRPHDRANAIAVYEANVRAVIATVPPSRLLVHNLGDGWKPLCLHLDVPVPDKPYPNRNTTKDFQSALAQN	soluble
MAITQKRPVYLQLVDRIKNEVATDVLSANDQLPSVRETALQEKINPNTVAKAYKELEAQKVIRTIPGKGTFITGNTASVKNSNQNRLLADLSQVIAELIKSGVKGERIKKIVNDILGGKNAEN	soluble
MAKAAKRFRTPSTTRVLYVRHAHAHGRQTWGGDDNKRPLDKKGRRQAEMLVPMLLPFKPTAIYSAVPDRCQATALPLADELGLDVSVNRLFGDDAWETDPEACKKRFTDVVAQGGVPMIVGQGDIIPEMIKWFSENGTLPIDEKIKAKKGSVWVLSFHDGVFTGADYLEHHHHHH	not soluble
MAKDPRYVGNLPKIGIRPTIDGRRKGVRESLEETTMNMAKAVAKLLEENVFYYNGQPVECVIADTCIGGVKEAAEAAEKFAREGVGVSITVTPCWCYGTETMDMDPHIPKAVWGFNGTERPGAVYLAAVLAGYNQKGLPAFGIYGKDVQDAGDTNIPEDVKEKLIRFAKAGLAVAMMKGKSYLSIGSVSMGIAGSVVQEDFFQNYLGMRNEYVDMSEFVRRIELGIYDKEEYERALKWVKENCKVGPDNNRDGFKRTEEQKEKDWEISVKMALIARDLMVGNKKLEEMGYGEEALGRNAIVAGFQGQRQWTDYFPNGDFMETILNSSFDWNGKRAPYIFATENDNLNGISMLFGYLLTNTAQIFADVRTYWSPEAVKRVTGYTLEGRAANGIIHLINSGAAALDGTGEQTKDGKPVIKPYYELTDEDIKKCLEATQFRPASTEYFRGGGYSTDFLTKGGMPVTISRLNIVKGLGPVLQIAEGYTVDLPEEVHDVLDKRTDPTWPTTWFVPNLTGEGAFKDVYSVMNNWGANHCSISYGHIGADLITLASILRIPVNMHNVPEEKIFRPDAWSMFGTKDLEGADYRACKKLGPIYK	soluble
MAKEVWRFIDSGYCPPAFNMALDEALLDWHSEGKIPPTIRFYGWNPPTLSIGYFQKVEKEIDLEAVKRHGLGFVRRPTGGRGVLHDKELTYSVIVSESHPAMPKTVTEAYRVISQGILEGFRYLGLDAYFAVPRTEEEKADLRSPRSAVCFDAPSWYELVVEGRKIAGSAQTRQKGVILQHGSILLDLDEDLLFSLFKYPNERVKERLQRDFKKKAVAINELTSRTVTIEEAKEAFYKGFEKGLNIVLEPYTLTAEERAYVEELARTKYESDEWNFKR	not soluble
MAKIGFVSLGCPKALVDSEQILSRLKALGYETSPSYEEAELVIVNTCGFINEAVEESLEAIGEALKENGKVVVTGCLGARPEKIRERHPQVLAVTGPGEVERVLEAVQEVLPAPRDPFLDLIPPQVKLTPRHYAYVKLSEGCDHRCSFCIIPKLRGRLRSRDAADVLAEAARLVATGTKELLLVAQDLSAYGVDLGHRESLWGDRPVRAELKDLLTHMAELGVWIRLHYVYPYPHVKDLLPLMAEGKVLPYLDVPLQHASPRILRLMRRPGGYESHLKTLKAWREVVPELALRSTFIVGFPGETEEDFQILLDFLEEAELDRVGVFAYSPVEGAEANRLPDPVPEEVKEERKARLLEVQARVSLRKNQRFVGKTLEVLVDELPEPGLAVGRTYRDAPGVDGVVYVETDGTVRVGERIPVRILRADTYDLHGVQAAAALEHHHHHH	soluble
MAKKLSSPKEYKEFIDKFDVFLFDCDGVLWSGSKPIPGVTDTMKLLRSLGKQIIFVSNNSTKSRETYMNKINEHGIAAKLEEIYPSAYSSATYVKKVLKLPADKKVFVLGEAGIEDELDRVGVAHIGGTDPSLRRALASEDVEKIGPDPSVGAVLCGMDMHVTYLKYCMAFQYLQDPNCAFLLTNQDSTFPTNGKFLPGSGAISYPLIFSTGRQPKILGKPYDEMMEAIIANVNFDRKKACFVGDRLNTDIQFAKNSNLGGSLLVLTGVSKEEEILEKDAPVVPDYYVESLAKLAETA	soluble
MAKKTLPAGVKSPPYIFSPIPFLGHAIAFGKSPIEFLENAYEKYGPVFSFTMVGKTFTYLLGSDAAALLFNSKNEDLNAEDVYSRLTTPVFGKGVAYDVPNPVFLEQKKMLKSGLNIAHFKQHVSIIEKETKEYFESWGESGEKNVFEALSELIILTASHCLHGKEIRSQLNEKVAQLYADLDGGFSHAAWLLPGWLPLPSFRRRDRAHREIKDIFYKAIQKRRQSQEKIDDILQTLLDATYKDGRPLTDDEVAGMLIGLLLAGQHTSSTTSAWMGFFLARDKTLQKKCYLEQKTVCGENLPPLTYDQLKDLNLLDRCIKETLRLRPPIMIMMRMARTPQTVAGYTIPPGHQVCVSPTVNQRLKDSWVERLDFNPDRYLQDNPASGEKFAYVPFGAGRHRCIGENFAYVQIKTIWSTMLRLYEFDLIDGYFPTVNYTTMIHTPENPVIRYKRRSTHHHHHH	soluble
MAKNDFKFISYKDKVKKELDATAERGMTKVLMIIKAAAKSGAPVETGQLRDRIDYQLKAVGGKVVGIVGSPEQYAIYVEFGTGEFAENGSGRKGGWFFEGPDGEWHFTRGQKPQKFLRNAFRQNKEKVIEILGKEYGATFKGG	not soluble
MAKPDQLELLFDVAPPADPASAAPPGAPPRKTPKARPAPPAPAAIATPCPDPLPPGARWREVHTEQQPIGFVLLRSRRRSIGFVVADDGLRVTAPNWVTLGQIDDAVREKARWILAKLRDWHARKEQLAMAHTRWQAGGELPYLGKRIVLGLGAERRQACLSGDADAPCDGDTLWLALPVDADQARIRDAAQAWLQQRAGAWFGARLAHFLQLTGLRIRRWRLSSAATRWGSCTSDGNIMLNWRLIHFAPAIIDYVIAHELAHLREMNHSQDFWTEVGHILPGFEDAKNVLRRHDPATLPQFLEHHHHHH	soluble
MAKPILYSYWRSSCAWRVRIALALKNIDYEYRPIDLFSEESKNNAEFVKHNPAKKVPTLVINGLSLTESLAIIEYLDEAYPDPPFLPKELDKRSYSRAIALHIVASIQPLQAINIHKMLNEKEPGYGDFWCNHFVNKGFLALEELLKKHSGKYCVGDQLTIADINLPSIIYNAKIYKVDMSKYPTITRINEILAEDFRFKLAHPDNQPDAPNKN	not soluble
MAKQSGGKPQIDEDFMKEIISQGLPVKKQETPLVTVETPDKPETVNKEEIKAEPKEEKAVKEPARRKKNTPGDYRETYFMRVDLTDRQPLYVSRTTHEKLMKIVTVIGGRKATVSSYVENILLRHFDQFQDEINELYESKFEKPF	soluble
MAKTLDSPGVLVVDFGGQYAHLIARRIRELGVYSEIVPATSLDALGEALPRAAGVVLSGGPGSVWGSRHDEAAAMVLQLGKPVLGICYGHQLLAKVLGGEVGRSPLPEFGPTEVEVLDYGILLNGLPSRFKVWMSHYDAVLRPPGEAKVLARTPGSPVAAMELWGRVFGVQWHPEVRHTQYGREVLDNWLSLVGAPRTWRPGDMVSELVESVKKEVGDALAVAAVSGGVDSTVAALIAKKAIGSRLYPVFIDHGLHPEGEVERVVKLLSRLGLEPVMVDAGEEFLAALEGVGDPEEKRRVVGRVYAEVLERAARDIGAEYLVQGTIYPDVIESGARPGADTIKTHHNVGGLPKDMRLKLVEPLRYFYKDEVRLLAEKLGVPRELIWKQPVPGPGLAVRVEGPITREKLRIVRRADAIVREEVEAAGLGGKLWQYFAVLTASMATGVRGDSRSYGYVVAVRAVESVDAMTAKPAELPWWLLERIARRITSEIPEVVRVVYDITSKPPSTIEWE	soluble
MAKVSVVMPVYNSEKYLKESIESILNQSYSDLEFIIINDGSTDNSFKIIKEYAKLDKRINVISRENKGIVYSLNEAIRLAKGEYIARMDADDISAPKRIEKQISFLKSHRDIDILGTQVKVVGNISNDIKEKNENKLNIEFDIYDDNREKILNYWYCLAHPSVMFRKDILRELKGYNDFKSEDLDLWLRAIESGFKIYKLKEELIYFRMHEESKTRVDNQNYEGLKDGIKIKLIDVFKREFKKDFKYIVWGASNGGKITKEVLDEFFEKSQCIAFVDKFKTGEFEKIRILHPKDINHIKFDYVFIATEPGKEEAMSSLKSMGLKCIKDFLSTVLEHHHHHH	not soluble
MALDQSLVGRSYPPTAPYEVGREKIREFAEAVGDANPAYTDAEAAKALGHPDVIAPPTFVFSITFKAAGQVIEDPQLGLDYSRVVHGDQKFSYARPVRAGDRLTVTSTIEAIKSMAGNDILDIRGEVHDEAGEHVVTAWTKLVARAAEEALEHHHHHH	soluble
MALDRLREALGEALFGQEEVIEALLAVLLARGHALLEGMPGLGKTLLAESLARASGLAYKRIQFTPDLLPQDLTGSEVYREGRFVFVPGPIFAQVVLADEINRAPPKVQSALLEAMQERAVTAGGVRHPLPEPFFVIATQNPLELEGTYPLPEAQLDRFTAKIPFRPPRREVWLRILTEEPKAPEPVEVDLLKAQEEAKEVRVAKEALEAITHVAFLTQEDQRLRMGLSPRGAKAWLSLARALAYLRGKPFVDWKELKDAAFLALPHRLFLTEEALYAGESAEGVLKEALRKGGIPLEHHHHHH	soluble
MALGLKCFRMVHPTFRNYLAASIRPVSEVTLKTVHERQHGHRQYMAYSAVPVRHFATKKAKAKGKGQSQTRVNINAALVEDIINLEEVNEEMKSVIEALKDNFNKTLNIRTSPGSLDKIAVVTADGKLALNQISQISMKSPQLILVNMASFPECTAAAIKAIRESGMNLNPEVEGTLIRVPIPQVTREHREMLVKLAKQNTNKAKDSLRKVRTNSMNKLKKSKDTVSEDTIRLIEKQISQMADDTVAELDRHLAVKTKELLG	soluble
MALKNVPFRSEVLAWNSDNLADYFRKLNYRDCEKAVKKYHIDGARFLNLTENDIQKFPKLRMPLLSKLSQDINKNEERRSIFTRKPQIPRFLEETESHEEDDGGWSSFEDDYESPNDDDPDGEDDGDYESPNEEEQALVDDAADYEPPPSNNEEALQSSILPPNSFHNTNSMYIDRPPTGKVSQQPPVPPLRPKPALPPLPTGRNHSPLSPPHPNHEEPSRSGNNKTAKLPAPSIDRSTKPPLDRSLAPLDREPFILGKKPPFSDKPSAPLGREHLPKIQKPPLPPAMDRHERNERLGPVTTRKPPVPRHGRGPDRRENDEDDVHQRPLPQPSLPSMSSNTFPSRSVQPSSKNTFPLAHMPGAFSESNIGFQQSASLPPYFSQGPGNRPPLRSEGRNLPLPVPNRPQPPSPGEEETPLDEEWYVSYITRPEAEAALRKINQDGTFLVRDSSKKTANNPYVLMVLYKDKVYNIQIRYQEESQVYLLGTGLRGKEDFLSVSDIIDYFRKMPLLLIDGKNRGSRYQCTLTHAAGCL	soluble
MALLEICCYSMECALTAQQNGADRVELCAAPKEGGLTPSLGVLKSVRQRVTIPVHPIIRPRGGDFCYSDGEFAAILEDVRTVRELGFPGLVTGVLDVDGNVDMPRMEKIMAAAGPLAVTFHRAFDMCANPLYTLNNLAELGIARVLTSGQKSDALQGLSKIMELIAHRDAPIIMAGAGVRAENLHHFLDAGVLEVHSSAGAWQASPMRYRNQGLSMSSDEHADEYSRYIVDGAAVAEMKGIIERHQAKLEHHHHHH	soluble
MALMTNKTRALLIGGHGKVALLATPMLIDASVQVTSMYRNPDHRSEIEALGATTLERDVTTLSVEDWADLLKDFDVVVWSAGNGGKNGADATYAIDRDAAIASIDGAASLGEKAPRYIMVSYIGSSTHTIDPSASFYPYAESKKAADEHLSSTNLDYLILAPAALTLDEVNGVEVIADTNEAAAGRTTSRVLVAEVITEFVVRDFPQTRVLPFVDGESPLEHHHHHH	soluble
